Measurements: paper PMC2330239 (Nucleic Acids Research, 2008)

T1: GST fusion protein of the NCoA-1 PAS-B domain, hNCoA-1 (260–370) (human, UniProt Q15788 260-370)
T1 sequence: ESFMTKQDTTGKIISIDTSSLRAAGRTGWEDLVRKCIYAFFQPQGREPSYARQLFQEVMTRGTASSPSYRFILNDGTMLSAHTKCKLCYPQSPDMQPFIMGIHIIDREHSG

T2: NCoA-1 PAS-B domain fragment 257–385 (human, UniProt Q15788 257-385)
T2 sequence: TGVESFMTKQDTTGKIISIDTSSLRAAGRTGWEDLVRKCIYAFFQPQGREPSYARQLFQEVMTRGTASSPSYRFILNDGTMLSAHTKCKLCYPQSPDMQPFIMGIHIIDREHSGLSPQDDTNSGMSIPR


Tests used:
[1] = target: T1, GST fusion protein of the NCoA-1 PAS-B …; assay: pull-down
[2] = target: T2, NCoA-1 PAS-B domain fragment 257–385; assay: NMR titration

binding result [1]	binding result [2]	Binder
binds	binds	EDQCISSQLDELLCPPTTVEG [peptide representing LXXLL motif 4 of human NCoA-1]
binds	binds	LLPPTEQDLTKLLLEGQGESG [human STAT6 motif peptide, STAT6 (794–814)]
binds	binds	EGRNDEKALLEQLVSFLSGKD [peptide representing LXXLL motif 5 of human NCoA-1]
